The values below come from paper PMC4741959, “Methionine adenosyltransferase α2 sumoylation positively regulate Bcl-2 expression in human colon and liver cancer cells”.

Sequences and labels used below:
B1: Bcl-2 P2 promoter probe 3 (site 3) (dsDNA)
DNA 1: GGCAGCTTAATACATTCTTTTTAGCCG
DNA 2: CGGCTAAAAAGAATGTATTAAGCTGCC
B2: Bcl-2 P2 promoter probe 1 (site 1) (dsDNA)
DNA 1: TGCGGATTGACATTTCTGTGAA
DNA 2: TTCACAGAAATGTCAATCCGCA
B3: Bcl-2 P2 promoter probe 2 (site 2) (dsDNA)
DNA 1: GGTTTAATGTAACTTTCAATGG
DNA 2: CCATTGAAAGTTACATTAAACC

For this series, the target named is recombinant MATα2 (UniProt P31153 1-395). Kind of series: EMSA; 200 ng protein; LightShift Chemiluminescent EMSA Kit protocol (Thermo); buffer, salt, pH and binding temperature not stated. As to conditions: label: biotin (extract EMSA), SYBR Green gel stain with recombinant protein, blunt.
recombinant MATα2, sequence (P31153 whole entry): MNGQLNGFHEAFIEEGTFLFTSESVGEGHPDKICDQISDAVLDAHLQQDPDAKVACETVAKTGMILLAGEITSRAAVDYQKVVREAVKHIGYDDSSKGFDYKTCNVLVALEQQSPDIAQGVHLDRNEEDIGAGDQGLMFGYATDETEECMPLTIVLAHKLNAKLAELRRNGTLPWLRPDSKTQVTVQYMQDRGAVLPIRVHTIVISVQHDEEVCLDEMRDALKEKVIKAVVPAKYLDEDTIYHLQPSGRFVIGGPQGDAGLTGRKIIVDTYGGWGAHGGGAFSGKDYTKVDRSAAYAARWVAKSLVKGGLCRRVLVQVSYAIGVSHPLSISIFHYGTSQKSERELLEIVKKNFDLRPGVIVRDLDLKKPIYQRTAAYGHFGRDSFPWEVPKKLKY
Regarding B1, the binding result is recorded as “binds”.

For B2, the binding result was “binds”.

On to B3, for which the binding result is on record as “binds”.
